Residue numbers refer to the chain shown, from its start. Names and notes keep the numbering of the source. Like-named read-outs stand apart in the source and are kept apart here. Blank lines part the entries; values can stand above or below the binder they belong to.
Legend:
[1] = target: T1, cynomolgus monkey PD-1 antigen protein (Sino Biological, 90311-C08H) (cynomolgus monkey, UniProt B0LAJ3 25-170); assay: SPR Biacore 8K, antibody captured by anti-human IgG (Fc), cynomolgus PD-1 as analyte
T1 construct: not shown: Tag of the vendor's construct (Sino Biological 90311-C08H, probably a C-terminal His tag)
T1 sequence (B0LAJ3 entry or part of it C08H C08H limits assumed, form in doubt): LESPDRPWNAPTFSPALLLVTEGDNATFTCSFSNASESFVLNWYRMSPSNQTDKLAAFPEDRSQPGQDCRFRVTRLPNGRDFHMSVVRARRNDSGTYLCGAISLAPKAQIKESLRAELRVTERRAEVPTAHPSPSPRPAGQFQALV

human PD-1 [2] = target: T2, human PD-1 (human, UniProt Q15116 25-288); assay: cell-based or functional assay
T2 sequence (Q15116 25-288 limits assumed): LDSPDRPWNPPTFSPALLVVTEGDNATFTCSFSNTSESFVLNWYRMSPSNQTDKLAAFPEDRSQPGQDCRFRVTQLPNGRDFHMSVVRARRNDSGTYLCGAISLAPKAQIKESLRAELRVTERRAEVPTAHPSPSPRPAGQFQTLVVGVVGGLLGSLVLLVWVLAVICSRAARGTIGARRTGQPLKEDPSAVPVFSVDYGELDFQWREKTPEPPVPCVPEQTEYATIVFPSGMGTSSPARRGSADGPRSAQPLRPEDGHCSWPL

[3] = target: T3, Human PD-1 antigen protein (Sino Biological, 10377-H08H) (human, UniProt Q15116 25-167); assay: SPR Biacore 8K, antibody captured by anti-human IgG (Fc), PD-1 as analyte
T3 sequence (Q15116 25-167 limits assumed): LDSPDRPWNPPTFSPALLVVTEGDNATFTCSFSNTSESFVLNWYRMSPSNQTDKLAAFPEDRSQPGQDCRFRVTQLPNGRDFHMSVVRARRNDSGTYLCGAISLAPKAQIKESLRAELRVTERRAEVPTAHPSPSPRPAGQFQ

[4] = target: T4, human IL-2Rα receptor protein (Sino Biological, 10165-H08H) (human, UniProt P01589 22-213); assay: SPR Biacore 8K, fusion protein captured by anti-human IgG (Fc), IL-2Rα as analyte
T4 construct: also called CD25
T4 sequence (looked up): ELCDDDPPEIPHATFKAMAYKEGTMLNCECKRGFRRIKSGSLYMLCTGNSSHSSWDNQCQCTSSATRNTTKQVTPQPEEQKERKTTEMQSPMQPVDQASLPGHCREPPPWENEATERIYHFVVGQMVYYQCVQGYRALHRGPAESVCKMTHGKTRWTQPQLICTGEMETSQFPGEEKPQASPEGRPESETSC

[5] = target: T3, Human PD-1 antigen protein (Sino …); assay: SPR Biacore 8K, fusion protein captured by anti-human IgG (Fc), human PD-1 as analyte
human PD-1 [6] = target: T2, human PD-1; assay: cell-based or functional assay; remark: listed apart in the source
IL-2Rβ/γ on M07e cells = target: T5, IL-2Rβ/γ on M07e cells (human, UniProt P14784 27-551; P31785 23-369); assay: cell-based or functional assay
T5 sequence (looked up) 1: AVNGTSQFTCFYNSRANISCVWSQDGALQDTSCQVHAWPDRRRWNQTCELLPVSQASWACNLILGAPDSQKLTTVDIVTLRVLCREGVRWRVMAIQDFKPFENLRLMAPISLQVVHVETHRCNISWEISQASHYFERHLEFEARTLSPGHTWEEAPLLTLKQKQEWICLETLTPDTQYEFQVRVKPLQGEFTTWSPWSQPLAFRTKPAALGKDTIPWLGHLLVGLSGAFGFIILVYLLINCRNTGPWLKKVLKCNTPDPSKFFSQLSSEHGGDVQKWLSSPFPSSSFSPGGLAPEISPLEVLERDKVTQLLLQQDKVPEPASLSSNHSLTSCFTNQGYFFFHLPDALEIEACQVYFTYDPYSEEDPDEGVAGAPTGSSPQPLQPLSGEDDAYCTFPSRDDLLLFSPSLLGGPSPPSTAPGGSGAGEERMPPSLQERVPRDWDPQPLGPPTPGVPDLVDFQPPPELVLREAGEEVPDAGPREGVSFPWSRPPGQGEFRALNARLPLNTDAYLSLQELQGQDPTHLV
T5 sequence (looked up) 2: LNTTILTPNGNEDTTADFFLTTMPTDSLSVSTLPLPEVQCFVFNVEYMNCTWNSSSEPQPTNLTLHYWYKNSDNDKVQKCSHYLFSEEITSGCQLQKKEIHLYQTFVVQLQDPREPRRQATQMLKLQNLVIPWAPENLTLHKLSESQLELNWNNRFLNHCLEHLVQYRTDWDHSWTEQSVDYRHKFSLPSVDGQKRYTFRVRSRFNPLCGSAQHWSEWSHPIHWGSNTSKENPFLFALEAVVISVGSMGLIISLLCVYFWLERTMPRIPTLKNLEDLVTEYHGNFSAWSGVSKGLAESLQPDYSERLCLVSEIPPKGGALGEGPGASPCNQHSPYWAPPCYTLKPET

[7] = target: T6, human IL-2Rβ/γ receptor heterodimer protein (Acrosystem, ILG-H5283) (human, UniProt P14784 27-239; P31785 23-262, limits assumed); assay: SPR Biacore 8K; affinity for human IL-2Rβ/γ against A-PC
T6 sequence (looked up) 1: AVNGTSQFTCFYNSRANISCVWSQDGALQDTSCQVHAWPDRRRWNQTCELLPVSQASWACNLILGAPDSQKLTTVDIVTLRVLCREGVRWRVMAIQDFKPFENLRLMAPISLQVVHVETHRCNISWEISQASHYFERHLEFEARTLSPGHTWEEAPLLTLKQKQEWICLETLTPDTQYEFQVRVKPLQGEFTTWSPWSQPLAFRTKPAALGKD
T6 sequence (looked up) 2: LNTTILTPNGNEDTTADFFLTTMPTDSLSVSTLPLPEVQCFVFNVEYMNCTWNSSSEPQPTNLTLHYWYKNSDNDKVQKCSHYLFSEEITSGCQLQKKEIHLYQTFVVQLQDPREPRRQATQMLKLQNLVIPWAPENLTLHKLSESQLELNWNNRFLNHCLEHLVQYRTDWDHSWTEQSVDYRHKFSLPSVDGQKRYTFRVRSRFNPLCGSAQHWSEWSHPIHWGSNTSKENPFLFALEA

human PD-1 [8] = target: T2, human PD-1; assay: cell-based or functional assay; remark: listed apart in the source
human PD-1 [9] = target: T2, human PD-1; assay: cell-based or functional assay; remark: listed apart in the source
[10] = target: T6, human IL-2Rβ/γ receptor heterodimer …; assay: SPR Biacore 8K, fusion protein captured by anti-human IgG (Fc), human IL-2Rβ/γ heterodimer as analyte

Kd [1]: 3.28 nM
koff [1]: 0.00108 s⁻¹
kon [1]: 328000 M⁻¹ s⁻¹
IC50, PD-1/PD-L1 NFAT reporter gene system (human PD-1 [2]): 0.435 nM
Kd [3]: 6.09 nM
koff [3]: 0.00177 s⁻¹
kon [3]: 291000 M⁻¹ s⁻¹
B1: A17m0902_hIgG4 (antibody, V domains shown)
VH: EVQLVESGGGLVQPGGSLRLSCAASGLTFSDYSMSWYRQAPGKGRELVAIISGSGVITHYVDSVKGRFTISRDNAKNTLYLQMRSLRAEDTAVYYCRAVSDWEDYWGQGTQVTVSS
notes: VHH-Fc antibody; not shown: human IgG4 Fc with hinge region and S228P (EU)

binding result [4]: no binding
Kd [5]: 17.6 nM
koff [5]: 0.00175 s⁻¹
kon [5]: 99800 M⁻¹ s⁻¹
M07e-hPD-1 cell proliferation activity (%) at 0.0001 nM (human PD-1 [6]): 2.8%
M07e-hPD-1 cell proliferation activity (%) at 0.001 nM (human PD-1 [6]): 3.3%
M07e-hPD-1 cell proliferation activity (%) at 0.01 nM (human PD-1 [6]): 18.1%
M07e-hPD-1 cell proliferation activity (%) at 0.1 nM (human PD-1 [6]): 32.1%
M07e-hPD-1 cell proliferation activity (%) at 1 nM (human PD-1 [6]): 41.8%
M07e-hPD-1 cell proliferation activity (%) at 10 nM (human PD-1 [6]): 45%
M07e-hPD-1 cell proliferation activity (%) at 100 nM (human PD-1 [6]): 61.1%
M07e-hPD-1 cell proliferation activity (%) at 1000 nM (human PD-1 [6]): 66.9%
M07e cell proliferation activity (%) at 0.46 nM (IL-2Rβ/γ on M07e cells): -1.7%
M07e cell proliferation activity (%) at 1.4 nM (IL-2Rβ/γ on M07e cells): -1.1%
M07e cell proliferation activity (%) at 4.1 nM (IL-2Rβ/γ on M07e cells): -1.5%
M07e cell proliferation activity (%) at 12 nM (IL-2Rβ/γ on M07e cells): -1.9%
M07e cell proliferation activity (%) at 37 nM (IL-2Rβ/γ on M07e cells): -2.8%
M07e cell proliferation activity (%) at 111 nM (IL-2Rβ/γ on M07e cells): -1.8%
M07e cell proliferation activity (%) at 333 nM (IL-2Rβ/γ on M07e cells): 0.2%
M07e cell proliferation activity (%) at 1000 nM (IL-2Rβ/γ on M07e cells): 14.6%
fold lower affinity than A-PC [7]: ~13 fold
M07e-hPD-1 cell proliferation ratio (%) at 0.0001 nM (human PD-1 [8]): 0.8%
M07e-hPD-1 cell proliferation ratio (%) at 0.001 nM (human PD-1 [8]): 0%
M07e-hPD-1 cell proliferation ratio (%) at 0.01 nM (human PD-1 [8]): 4.8%
M07e-hPD-1 cell proliferation ratio (%) at 0.1 nM (human PD-1 [8]): 18.3%
M07e-hPD-1 cell proliferation ratio (%) at 1 nM (human PD-1 [8]): 21.3%
M07e-hPD-1 cell proliferation ratio (%) at 10 nM (human PD-1 [8]): 25.2%
M07e-hPD-1 cell proliferation ratio (%) at 100 nM (human PD-1 [8]): 31.1%
M07e-hPD-1 cell proliferation ratio (%) at 1000 nM (human PD-1 [8]): 45.5%
M07e-hPD-1 cell proliferation ratio (%) at 0.0001 nM (human PD-1 [9]): 5.2%
M07e-hPD-1 cell proliferation ratio (%) at 0.001 nM (human PD-1 [9]): 4.4%
M07e-hPD-1 cell proliferation ratio (%) at 0.01 nM (human PD-1 [9]): 13.4%
M07e-hPD-1 cell proliferation ratio (%) at 0.1 nM (human PD-1 [9]): 30.8%
M07e-hPD-1 cell proliferation ratio (%) at 1 nM (human PD-1 [9]): 36%
M07e-hPD-1 cell proliferation ratio (%) at 10 nM (human PD-1 [9]): 35.5%
M07e-hPD-1 cell proliferation ratio (%) at 100 nM (human PD-1 [9]): 41.1%
M07e-hPD-1 cell proliferation ratio (%) at 1000 nM (human PD-1 [9]): 55.4%
Kd [10]: 3.38 nM
koff [10]: 0.000215 s⁻¹
kon [10]: 63700 M⁻¹ s⁻¹
B2: A-N88D (Fc fusion)
chain (part 1 of 2): B1 VH
chain (part 2 of 2): GGGGSGGGGSGGGGSAPASSSTKKTQLQLEHLLLDLQMILQGISNYKNPKLTRMLTAKFYMPKKATELKHLQCLEEELKPLEEVLQGAQSKNFHLRPRDLISDINVIVLELKGSETTFMCEYADETATIVEFLNRWITFAQSIISTLT
chain: B1 VH
notes: also called PD-1-IL-2v (N88D); not shown: IgG1 hinge (C220S) + Fc Knob chain (L234A, L235A, S354C, T366W, EU); D356/L358 or E356/M358 ver; IgG1 hinge (C220S) + Fc Hole chain (L234A, L235A, Y349C, T366S, L368A, Y407V; may have H435R, Y436F; EU)

binding result [4]: no binding
Kd [5]: 18.5 nM
koff [5]: 0.00168 s⁻¹
kon [5]: 90600 M⁻¹ s⁻¹
M07e-hPD-1 cell proliferation activity (%) at 0.0001 nM (human PD-1 [6]): 2.3%
M07e-hPD-1 cell proliferation activity (%) at 0.001 nM (human PD-1 [6]): 2.9%
M07e-hPD-1 cell proliferation activity (%) at 0.01 nM (human PD-1 [6]): 11.4%
M07e-hPD-1 cell proliferation activity (%) at 0.1 nM (human PD-1 [6]): 24.2%
M07e-hPD-1 cell proliferation activity (%) at 1 nM (human PD-1 [6]): 28.5%
M07e-hPD-1 cell proliferation activity (%) at 10 nM (human PD-1 [6]): 30.2%
M07e-hPD-1 cell proliferation activity (%) at 100 nM (human PD-1 [6]): 32%
M07e-hPD-1 cell proliferation activity (%) at 1000 nM (human PD-1 [6]): 39.2%
M07e cell proliferation activity (%) at 0.46 nM (IL-2Rβ/γ on M07e cells): -3%
M07e cell proliferation activity (%) at 1.4 nM (IL-2Rβ/γ on M07e cells): -2.6%
M07e cell proliferation activity (%) at 4.1 nM (IL-2Rβ/γ on M07e cells): -1.6%
M07e cell proliferation activity (%) at 12 nM (IL-2Rβ/γ on M07e cells): -3%
M07e cell proliferation activity (%) at 37 nM (IL-2Rβ/γ on M07e cells): -3.7%
M07e cell proliferation activity (%) at 111 nM (IL-2Rβ/γ on M07e cells): -2.4%
M07e cell proliferation activity (%) at 333 nM (IL-2Rβ/γ on M07e cells): -1.9%
M07e cell proliferation activity (%) at 1000 nM (IL-2Rβ/γ on M07e cells): 0.6%
fold lower affinity than A-PC [7]: ~63 fold
M07e-hPD-1 cell proliferation ratio (%) at 0.0001 nM (human PD-1 [8]): 0.6%
M07e-hPD-1 cell proliferation ratio (%) at 0.001 nM (human PD-1 [8]): -0.3%
M07e-hPD-1 cell proliferation ratio (%) at 0.01 nM (human PD-1 [8]): 2.6%
M07e-hPD-1 cell proliferation ratio (%) at 0.1 nM (human PD-1 [8]): 8.4%
M07e-hPD-1 cell proliferation ratio (%) at 1 nM (human PD-1 [8]): 10.8%
M07e-hPD-1 cell proliferation ratio (%) at 10 nM (human PD-1 [8]): 10.8%
M07e-hPD-1 cell proliferation ratio (%) at 100 nM (human PD-1 [8]): 13.5%
M07e-hPD-1 cell proliferation ratio (%) at 1000 nM (human PD-1 [8]): 15.4%
Kd [10]: 16 nM
koff [10]: 0.000681 s⁻¹
kon [10]: 42700 M⁻¹ s⁻¹
B3: A-D20A (Fc fusion)
chain (part 1 of 2): B1 VH
chain (part 2 of 2): B2 chain (part 2 of 2) with D35A, D103N
chain: B1 VH
notes: also called PD-1-IL-2v (D20A); not shown: IgG1 hinge (C220S) + Fc Knob chain (L234A, L235A, S354C, T366W, EU); D356/L358 or E356/M358 ver; IgG1 hinge (C220S) + Fc Hole chain (L234A, L235A, Y349C, T366S, L368A, Y407V; may have H435R, Y436F; EU)

— patent EP4477673A1, “IMMUNOCONJUGATE AND USE THEREOF” (priority 2022, dated 2023)
